Laboratory results published in publication PMC4245959, “Molecular recognition of RhlB and RNase D in the Caulobacter crescentus RNA degradosome” (Nucleic Acids Research, 2014).
Blank lines part the entries; values can stand above or below the molecule they belong to.

B1: recombinantly expressed and purified RhlB (enzyme, Caulobacter crescentus, UniProt Q9A779 1-517, looked up)
chain: MTEFTDLGLSPTTLQAVADTGYTTATPIQAQAIPVALAGQDVLGIAQTGTGKTAAFTLPLIDRLQSGRAKARMPRALVIAPTRELADQVAASFEKYAKGTKLSWALLIGGVSFGDQEKKLDRGVDVLIATPGRLLDHFERGKLLMTGVQFLVVDEADRMLDMGFIPDIERIFKMTPPKKQTLFFSATMPPEITRLTKQFLRDPVRIEVARPATTNANITQLLVKVPSSDPKAKRLALRALIEKAGIETGIVFCNRKTEVDIVAKSLKVHGYDAAPIHGDLDQTQRMKTLADFRSGALKILVASDVAARGLDIPAVSHVFNYDVPHHADDYVHRIGRTGRAGRTGITYMLVTPADDKGFDKVIKLIGSTPDEEKLDLDYSNAVTVKREGDRKRGGRDRDRGERGERSERPARGRGRGRERAEETVEAPAEAVAEIVDTPAMAEERPARERRPRREREPKAAAPAPTAVEAERPARAERPERPVRGVQPVRDRDDDDRRVVGFGSDVPAFLARPPRGAK
notes: DEAD-box RNA helicase RhlB (cc1847) of Caulobacter crescentus; monomeric in solution; source: recombinantly expressed and purified
B2: recombinant RNase D with an N-terminal hexa-histidine tag (enzyme, Caulobacter crescentus (CB15), UniProt Q9A7L8 1-389, looked up)
chain: MKLITTTAELAAFCNGLAGEPFVAVDTEFMRETTYWPKLCLIQVASPTQEAVIDPLADNIDLEPLLVVMRDERILKVFHAARQDVEIFNNLKAMPKPLFDTQVAGMAAGFGEQIAYDALVRQMLRIEIDKSSRFTDWARRPLTDAQLSYALADVTHLAKLFPILRERLETSGRLAWVEEEMTAISDPAAYDVDPEKAWRRLRPRKTAPKYLAVFKAVAAWRERTAQNRDQPRGRILKDEAIDELATQTPGNLEALNNLRGVPKGFGGSKFGPDLLAAIKDALADPEGYAPVVDKPGPPPPQNAGAVVELLKVLLKARAEEAGVASKLIATVSDLEKIAADDNATTPALTGWRREAFGSDALKIKRGELALVLDGARVRVVEVRRAPKND
notes: ribonuclease D; the RNase D gene (cc1704) amplified from C. crescentus (CB15) genomic DNA into pETDuet-1; also called 6xHis-tagged RNase D; not shown: His6, N-terminal, kept
B3: C. crescentus RNase E catalytic domain, residues 1–575, N-terminally 6xHis tagged (domain or fragment, Caulobacter crescentus, UniProt Q9A749 1-575, looked up)
chain: MSKKMLIDAAHAEETRVVVVDGTRVEEFDFESQTRKQLRGNIYLAKVTRVEPSLQAAFIEYGGNRHGFLAFNEIHPDYYQIPVADREALMRDDSGDDEDDTPISRRASGGDDEDDVNGGDRAVDDDDDDVEEELARRKRRLMRKYKIQEVIRRRQIMLVQVVKEERGNKGAALTTYLSLAGRYGVLMPNTARGGGISRKITAVTDRKRLKSVVQSLDVPQGMGLIVRTAGAKRTKAEIKRDYEYLLRLWENIRENTLHSIAPALIYEEEDLVKRAIRDMYDKDLDGIWVEGDAGYKEARDFMRMLMPSQAKKVFNYRDPTPLFVKNKIEDHLAQIYSPVVPLRSGGYLVINQTEALVAIDVNSGKATRERNIEATALKTNCEAAEEAARQLRLRDLAGLIVIDFIDMDEAKNNRTVEKVLKDALKDDRARIQMGKISGFGLMEISRQRRRTGVLEGTTHVCEHCEGTGRVRSVESSALAALRAVEAEALKGSGSVILKVSRSVGLYILNEKRDYLQRLLTTHGLFVSVVVDDSLHAGDQEIERTELGERIAVAPPPFVEEDDDFDPNAYDDEEEE
notes: tetramer by AUC; also called CcNTD

What was measured:
[1] = target: fragment of C. crescentus RNase E containing the S1 and 5′-sensor sub-domains, residues 1–274 (Caulobacter crescentus); assay: AUC; sedimentation velocity of the co-expressed, co-purified CcNTD(1–274)–RhlB complex at 2 mg/ml in 20-mM Tris pH 7.5, 200-mM NaCl, 20°C, 50 000 rpm
[2] = target: B3; assay: AUC; sedimentation velocity of the SEC fractions of the CcNTD(1–575)–RhlB complex; continuous molar mass distribution; settings: both partners purified
[3] = target: the molecule itself; assay: AUC; recombinant RNase D alone; single species of 85.9 kDa
[4] = target: the molecule itself; assay: AUC; sedimentation velocity, CcNTD(1–575) alone at 2 mg/ml in NTD buffer, 20°C, 40 000 rpm

- stoichiometry N [1]: 1
Molecule: RhlB co-expressed with CcNTD_(1–274) (enzyme)

Molecule: B1
- stoichiometry N [2]: 2 RhlB monomers per CcNTD_(1–575) tetramer

Molecule: B2
- stoichiometry N [3]: 2

Molecule: B3
- stoichiometry N [4]: 4
